This data set in a line: soluble on expression in E. coli; label from the status in PepcDB or PDB records.
With “MAHHHHHHMHLQIVCLTDEVREMYKHHKTHHEGDSGLDLFIIKDEILKPKSTTFVKLGIKAIALQYKSSYYHKSEANANANANANGKDAPVGMGGVNAKESCAPHQKNPEIVNTSYLLFPRSSISKTPLRLANSIGLIDAGYRGELIAALDNTSEEEYLIKKNDKLVQLVSFTGEPLSFELVDELDETSRGEGGFGSTSNK”, the “soluble on expression in E. coli” value is on record as “soluble”.
The value for “MAHHHHHHMHNFAKIFRSNFIDINAANKFEIFLKTILRIYKTPARTHLLAHAADISAIYAVRQIYNYMKNDEEGRTVLKEKPLLIRQDIQFNELKKLPKNTLGYKYMKFLETYKLHAHDREVSHFFTDLNYSYILTRYRQIHDIGHVVYNLNISIESEAALKLIELVQTKLPITLLAILVAPFMTPIYRFQYIFKDSLPSNFLSPNFDFTYTDAYNYVDELSIKQYEYNLTDYFHVEKRNDRNFYTKMYQHYFDNINNSSAVRGSIIYGFENKSSNDIIYDQPNREYIFLKNLKKKYLLFQYKPRKNLLRELYPWAYMAGVSTTKPLHSIHIEKWLDKDIDLFRRTYNISPLPDHLNLMAGIN” was “not soluble”; that for “MAHHHHHHMIEHLNLWLPWKHRKPMWPYPQKNAMPSVFPLEFTTLGEGVVTFSCLCLAAVLAVQEVLTPSHGFPTVLVAFPHKRGGVSSALLYSKVVEAFIQSLRSESALVEAVTVRHMARAALQALNTIINACFSEQYPLYTMAQLLLSEGKAEAKDATHDGGMLGAVDLVLSIDPLSCGGDILHSETQLVMPTPFAIRSVGRCTPGAARQQTNVKLPSALEVTDAALLQMPGAGESSTGRRLSACILERSQVLLTLLK” was “not soluble”; that for “MAHHHHHHMIICNNNVNHFWKNIKKNIRLDGRTFEDSRNVCINFLKDYGHVEISIGFTKVICKITSEIVKPHDRKLKEGILKINLDIDNFIEDNENSDNMSDECLEIKNIIDRVLKTSNIINFESLCIIPGKKVWCICINIMVIENDGNLTDACYLSAYCGLVHFKNHQVRVIKNGDIIIDKEEINYSPLSILNSPIVTTFAYYEEHDVCLIDPCLHEEEFMSSKISIALNKNGNLISLLKPGGIPLACSHIMESIEIAKKRILTILKILEDTLEEDKNIRSYLTKRNLHVKYSSAPVTIRYDNSFKLKPDISLERYTKNTLIFEDTIKKIEQYIQYNQVQECLNNMNVKLEENDQEEIETCTLKGEGNLNNPNFIDPMRNTNLLNPTDITIIKRQEFVDNHYDANNNKYNTQANKTFKKELIDFSNLLTQNHKKSNNLSNNQKDISEQHDNSQESSDDASTIRSDESSDIDFSVAINQNIKKKK” was “not soluble”.
For “MAHHHHHHMILRTAGASNVYSVFAYPGTGKARDMLTTETADTSGSESGNLTNVRARHCAHFQFNKMCNLGESCNFIHSLVPYVQRLSMSSQGPLYNSIVTQRPLLMPSTSMAHFSRFPNGNNNNGVVSSYSMEFMQPSMLHVSPQTQQQQQQQKQQQKQQQKQLHQQPQHAMPPPPPTVSHLIPSPQPSEHLMYQSNMSMMSLPMYMSSPISSTWDGVRYGANYQ”, the “soluble on expression in E. coli” value is “not soluble”.
As to “MAHHHHHHMIYKAYGSPENNSGNTHMYSMYAPPNAYVQGQGGSRTMYGYAGTGGHGSGHPFGYHANPSMGVTYEYNGGINVHHNGSAYRVGGGTNGRDRGGDVVSLRNLHGYDQQATSDYEVHDNQLKAPVVVTPATVVSTLGSARLFSKPPKPIVYGSRCVVRICDAFQEGRCAAGDRCHDIHVRPEYLAETRMEMSSWLFDRECEFRQTMEMDSEKTFSIFVADLKEVVEVPINSLVFTKGLYVDPATRAKRARGAGNHAHVHAMMQVPTSCGLYSTDPLQCKWERWCNQVHIDHRWMQVKKAEFDQWFIELQNRYFSLAPDDTFTVHDPQLKSSISLPKFSIAGFSRGLFQGSMKKLASVCLLFQRGKCTAGSCCNQIHVFPQYLSLAREFAAMEQSPDALPEEKQRLRREMELLRGPLMKQEKQETAAMESASLPNVVSSANEGTHSDAMDIKAAAEEDLASCGALFEHVQVDEDVEPVSHLVSANTSLTRRMNASAPDISLSVARHMNSDGSYSFNPYGSVTSLPDGSTSFNRFPGTRGSGQPMDGNGSVQYTPGSVQLLSTDTKGMRRLVALVSPESGNGAVELHRNGDDMGIGGNAGDGGTATVAHDRAPPFAAGHRSNGGYRAVAHPLGDEGGRYDSGTQGEQSCSLHPLDFDASWHFSPTPLLGFDASTTSTHRNGSIRDEDPAMHAHLRLTASNSSYIYPGSSTTSQQNLLSTPMHRGVTSNATTAARVRLAASAASSRTHAHRSATSLPDSSTTNPAMGGSVSSMPTARPTFVGEQLTGTR”, the “soluble on expression in E. coli” value is reported as “not soluble”.
As to “MAHHHHHHMKDEQISCYYLTEKGKNKCFKNIKLITFDLDHTIWNIDALLNYADNECYKYMEQNYKRLYDYLSKEYALSMTNLVKELLERNIDMNKDGVQILTRIRTDALKYLAKQTNYDEIKFASEIQKLWKEKKKDVHLFISPGTLEYLRELKNRGYILGAITNGDSDVNEIKFLNEIFSFVVRSMDYNFAKPNVEIFNIAENLLKEKNINFHVDEWLHVGDDVYTDIMGAKNKNINCAWITMFREGREISHKEWYSYLKLKYEQNDNKQTLSQYDPYADGLFAKFRKKDVVLPFDYIDIEIRHCRDLDSILA”, the “soluble on expression in E. coli” value is on record as “not soluble”.
Turning to “MAHHHHHHMKEKYTITPLARRTPNGVLTQVLTEARREAAERLRGMQEMKFTICTDIEEVLFKGRVHVNEMRLNDFLTREPDGRGVVDTNRDVLLEEFFKDPTKYIRDKGALNEIQAFGHYLSMKRAVKGEVIFDEDIRELCDRVSTTYRGGHWLLRR”, the “soluble on expression in E. coli” value was “not soluble”.
Take “MAHHHHHHMKEYLAQKEYRAKEYRAKDYPAKDYSGKKEYTSKKAYTPKKEYTAIRGCAVENAYFDEKAYTGCKANQGEEAHKNDASVVEGGKSKKNEERVLAGMIKILEEMKESDDASNAVDPGFN”: the “soluble on expression in E. coli” value is reported as “not soluble”.
Regarding “MAHHHHHHMKNGKPMGGRETQKQKQKQKQVTLLTWINRANQPRQLTRKTKKAHEKQEERRIWLGAAKRLPQKMPQSMRCNYDIRTHINTHIHKHSHSHSHQLQTYTRTHHLSQKEMKRNEPQDIIRFHSNTQEPAGSTSSHVVTRLVITLLLLCTTQICPTSTEAVERGKQGALLFR”, the “soluble on expression in E. coli” value is “soluble”.
Regarding “MAHHHHHHMKPKIPFIIEIFSSFGDNYSTNYIEKEMNLDIMNVVKNYDLDTLVEENKEANGTPHVTVDDAVDQIMDRFYDCSVFHKIILLDVSILFERVE”, the “soluble on expression in E. coli” value is reported as “not soluble”.
On to “MAHHHHHHMKQLLSPKTARHSRLFRLANRLAGQKGAPESDGERLSWVNSHVKRTQDMELSREEEALRERIMPLEVGDNAVVSNSQATHGNLFHFREYPMYPGEYVPAGHNTLSSLRDELRSDLTAQSLKEAWMRVSGGMYFKSIDDYYASVDGLDQEQLGEIVSALLPDLRKYEAQALVTKVLESLSKPADSPSRQLSRTITADAVGLDNAPGHYTNFLEWMGRMTETKAFKTEHALFEFSRRKFNREDVRVMFENYNLMSKATLEADSTDSYSHFYTVLHDFSRKVAGEDTRHQIGVRIDPAEVDPETGIAVGHGRADGQKYMFTALIRENRDHNGSVTLLGKPLSVAFDDKSWLMEMVLMPFDEAKLDFRDFDVNLISEGKAMPSFANEIAAFACRMAVANAITKLLPLARIPLKKAGLLSVDRRREPGQFPGFVDGKKNKRKFAKR”, for which the “soluble on expression in E. coli” value is on record as “not soluble”.
As for “MAHHHHHHMKTFRYLTITGDTITLRRGARHVMHLLLTLERAPYDTRLNLEFVSLAHMRQLNYKYKGLDRPTDVLTFAPAGEADSFVNDLLFGDFLERGDGDKGTGATLTASPTCAAAVGAGPNALTQSIIRGELVDLGNIFVSLDYMRLRCRRYPSTTLPLAPYLHAALVHATLHALGYDHTSRALLQQMARREQQLGRQLAMIARQHPRCLPPLNIWDSM”, the “soluble on expression in E. coli” value is on record as “not soluble”.
With “MAHHHHHHMKTLKEALTNVLSSLNIAEKKEILNVLYHILQKIIENPSRAKFRSLKKDNKTFVNKLLQFKESDELLRSLGFEEETEIWFFPVKNDHKLSSNLTEIRAFIKEHVNTIYNNQDSIFETGTASSSAHLPTDEKNVTENTSNLGDTCNNSEGLTLGGLSKRRLEKERLELLSQKENTIKLLQEHADKWIIQITGAENTLYSNETFQMQFKFTEKYPIESPEVIFLGQPPIHPHIYSNGHICLSILYDHWSPVLSVNSICLSIISMLSSCKKKRKPLDDILYCSTGPRISPKNMKWMFHDDKV”, the “soluble on expression in E. coli” value was “not soluble”.
In the case of “MAHHHHHHMLRARTLLLFMRPEAAAAELRRLLPLLSFAGRRTGAATHSVASLIVSTAYSATAARSVTNHSRDCPVLSKKLPLPLIGKESSFAARPCLNCVRERVHYVSSLSFCDYFEKKCAEAQHYRNGASSNGVVGTAALPKLLLEAIERSYGSVAAFKDSVMLHSTGAMSPGRLWIVYTPPISGSEHGAVRLLNLPACKVPLVHGLWPLAVINMTEKRLCEQIACRSGKGGDAVDADDAPAWRHAARTRKTLGALATTEEGNDRAGNVAQVKLSSIQSAIAEEALCAMNWKFVETQLTSALAYYSSKERTQTQREHRKEKEHVAAVRAMSQLKNSGAVIHATDSVTITSSNSFVASSASEPNLSAAAAVTSSSAKAENSALGEANTQTAAVAAPSAEATAANTASNSAQPADNTATGAAAAEPRAVQQADGTWEYHYNNGSVTKALPDGTKVFQTESLTTTVFVNGDTLFEYPNNTSILDRADGVRVITYADGTKKEERLK”, the “soluble on expression in E. coli” value is recorded as “soluble”.
In the case of “MAHHHHHHMLRLLPLRLASKVTAGNAKNQAGHPRRKAKLFHVIPGTPVTPMEKLKEQRRRYGQDRHSRLPEYRPGKNVRLDPNTFTLYATTKGVMTIRESRINPKYKWLEVEPDIQKVYRSSQMRRALAARGMTSQMVEKNEHYRSEMDLLLEPHWRQRVMRVPKATERFKDPNLFVRGVITELTPMDRYCYE”, the “soluble on expression in E. coli” value is reported as “not soluble”.
The same measure for “MAHHHHHHMLRLSFVHRKSRHQNVLRRGRPHMQKYRELNRWQRQAQGISKWDQSQSHRPLPYVERFNPEGVGVTRGTSAFAWQWWHTQQPWLPNVAPPNHTGRKITNTSGTTEETAKPPAWDEEFTSVVLSMTDSEIREYLLDKLTDVIFAETQRDGYELRRLDFEGNPLTELPERRIIESFVFEEETLRERVIYQVVEGVFRLSPTSADRRELRSVETIIDYVLTHVSAARPDSRPRVTPAALAVMQQCPLQPELGFVHALPVDSRDEILQEWERMHHLDWQFGKAVYVPRSREETRGNLTWLREERHNAERVEFMKRVASGEAKAEHMRRIAEAACTERPETMHG”: “not soluble”; for “MAHHHHHHMLRRVLSRGPLPQSLSVGPTSKLTVNKGKLAKSRGVHVHFLTIAECAAAAGDASAPIPPGFTGKAGEVDFQTLWTTAQDPATAESVLRKSGRKAAGARRAAEKPAELVAGMGAHSTVRDYRLAVTAAVRKAKMCNAAWVSLHPPKQDVFTMTDPYHPPQRLKSHEMVEKTAIFAVTGAYQYDRLKSGTLASKDSAQTGRTRARRAESRAKPPAAPQPPMELVVASSNAQAVRAGEVIGHCVNEARNLGNLREDEGVPEFYAEWAKKYMIPEGIKVRKVLRGQQLEEAGLHLMYNVGRGSRYEPYLVVLEYIGNPRSSATTAIVGKGVTFDCGGLNIKPYTSMETMHSDMMGAATAFCTLKAIAKLQLPINVVAAVGLVENAIGPESYHPSSIITSLKGLTVEVLNTDAEGRLVLADVLTYVQKYAPLDKKPTRIIDLATLTGAIIVGLGSRRAGLFSPSAMLANSLMAAGTQCGEELWPMPIGDEHKDMMKGGIADLINAAPGRQAGSCTAAAFLSNFVEPEVQWAHLDIAGVADVGDKPKGYEPAGVTGFGVQLLVDFLRHNKP”: “not soluble”.

(Values after the DeepSol protein solubility set.)
